From publication PMC10732398 (PLOS Pathogens, 2023)

Experiments:
⍺4β7 = assay: SPR: inhibition by linear peptides of soluble ⍺4β7 binding to a CD4 D1D2 coated surface; conditions: for inhibition of ⍺4β7 binding to D1D2 (in words): SPR, Fig 7B, 7D, S5 Fig; for inhibition of ⍺4β7 binding to CD4 D1D2 coated surface: SPR peptide scan (Fig 4A), ⍺4β7 pre-incubated with peptide 2 hours at room temperature, 1 mM MnCl2
Excerpt: We next modified our SPR -based assay in order to map the site(s) on CD4 that interacts with ⍺4β7. In this modified assay ⍺4β7 was passed over a surface coated with CD4 D1D2 in the absence or presence of 42 overlapping 15 amino acid linear peptides spanning CD4 residues 1–178 (S2 Table). Two peptides located in CD4 D1, #7 and #9, inhibited ⍺4β7 binding by ~17% (Fig 4A). The final peptide in CD4 D2, p42, inhibited binding by ~ 66%. Linear peptides often lack the true conformation of the protein from which they are derived. Additionally, the kinetic format of our assay allows for ligand-analyte rebinding during the association phase. These features render this inhibition assay somewhat insensitive. Nevertheless, the dynamic range of this assay is sufficient to identify interactions that are worthy of follow-up investigation (S4 Fig). As such, our preliminary findings raised the possibility that both D1 and D2 domains of CD4 interact with ⍺4β7. Of note, MAdCAM-1 and VCAM-1, like CD4, present two tandemly arrayed N-terminal IgSF domains (Fig 4B). In both cases, binding to ⍺4β7 is mediated by a 1° binding site in their D1s and an accessory site, located in their D2s. The term accessory is a misnomer insofar as these sites plays an essential role in ⍺4β7 binding. Follow-up experiments focused on p9 and p42, which we herein refer to as pCD4^33-47 and pCD4^165-178. pCD4^33-47 partially overlaps the D1 C’C” β-strands and a connecting loop. The primary gp120 contact site (Phe^43) lies at the N-terminal edge of this loop (Fig 4C). pCD4^165-178 includes Q^165 and K^166. These residues lie primarily within the G β-strand of D2, close to the boundary with D3. Because peptide inhibition assays sometime mediate nonspecific effects, further analysis was performed to better establish the role of these two regions of CD4 in binding to ⍺4β7.
To determine if this is the case, we employed an SPR -based assay. Biosensor surfaces were coated with either CD4 D1D2 or a 42 aa cyclic V2 peptide derived from the subtype E 92TH023 gp120 (cV2 92TH023). A third surface coated with MAdCAM-Ig was employed as a positive control. Soluble ⍺4β7 was passed over these surfaces. We then evaluated the capacity of staggered 15 aa peptides that span either CD4 D2 or gp120 V2 to inhibit this interaction (Fig 7A).
Experiments were performed using a Biacore 3000 instrument (Cytiva Life Sciences) using CM4 or CM5 sensor chips. The data were evaluated using BIAevaluation 4.1.1 software (Cytiva Life Sciences). The chip surface was activated by injecting 35 μl of a 1:1 mixture of 0.05 M N-hydroxysuccinimide and 0.2 M N-ethyl-N-(dimethylaminopropyl) carbodiimide at 5 μl/min. NeutrAvidin, HIV gp120, sCD4 (D1D2) or Hu-MAdCAM-Ig (R&D Systems) at concentrations of 5 μg/ml in 10mM NaOAc, pH 4.5, were immobilized to 250–750 resonance units (RU). After the proteins were immobilized to the desired densities, unreacted sites were blocked with 35 μl of 1 M Tris-HCl (pH 8.0). Biotinylated cyclic V2 peptides (1 μg/ml in 20 mM Tris-HCl, pH 8.0) were bound to the NeutrAvidin surfaces to densities of approximately 250–300 RU. One surface was activated and blocked without ligand as a control surface for non-specific binding. Signal from the control surface was subsequently subtracted. Running buffer was HBS (pH 7.4), 1 mM MnCl2, 0.005% Tween- 20, 0.05% soluble carboxymethyl-dextran. Binding experiments were carried out at a flow rate of 25 μl/min at 25°C. After a 2 min injection, the surface was washed for an additional 2 min in running buffer allowing dissociation of the bound ligand from the surface. The surfaces were regenerated by multiple injections of 4.5 M MgCl2 at a flow rate of 100 μl/min. Inhibition of ⍺4β7 binding by linear V2-loop and CD4 derived peptides was carried out by pre-incubating ⍺4β7 with the peptides in running buffer at the indicated concentrations for 2 hours at room temperature prior to passing them over the prepared surfaces as described above. […]

[1] = biological target: BG505 SOSIP env trimer (HIV-1 BG505); assay: SPR
[2] = biological target: BG505 gp120 (monomeric gp120) (HIV-1 BG505); assay: SPR
[3] = biological target: CD4 D1D2 protein (23 kD, aa 1-183) (human); assay: SPR
[4] = tested on: ⍺4β7 transfected 293T cells; assay: Flow cytometry: staining of 293T cells co-transfected with ⍺4 and β7 expression vectors; assay type: binding; conditions: Fig 1C
Excerpt: The FRET/FLIM results described above indicate a direct interaction between CD4 and ⍺4β7. […] To this end we employed a fluorescently labelled soluble dodecameric CD4 Ig fusion protein, termed D1D2-Ig⍺tp, that includes the two N-terminal Ig-like domains of CD4 (D1D2, aa 1–180), followed by IgG1 CH2 and CH3 domains, followed by the 18 aa tail-piece domain of IgA (⍺tp). In this oligomer, 12 D1D2-Igs are arranged in a disulphide linked daisy-chain (Fig 1A). Primary CD4^+ T cells, some of which express ⍺4β7, were reacted with D1D2-Ig⍺tp and analyzed by flow-cytometry. A second oligomeric Ig fusion protein, MicA-Ig⍺tp, which includes the two N-terminal domains of MicA, was employed as a specificity control. […] MAdCAM-Ig was employed as a positive control. […] We conclude that an oligomeric soluble CD4 that includes only its two N-terminal domains can bind to ⍺4β7 in a specific way.
Fig 1 Binding of soluble CD4 to ⍺4β7 on CD4^+ T cells. (A) Schematic of D1D2-Ig⍺tp. […] X-axis indicates geometric mean fluorescence intensity (gMFI). […]
Cells were stained with fluoresceine conjugated mAbs or recombinant proteins using standard procedures preceded by Fc receptor blocking with human IgG. […] Data were acquired using a FACSCanto II (BD Biosciences) and analyzed with FlowJo software (BD Biosciences). […]

[5] = tested on: ⍺4β7 on primary CD8^+ T cells; assay: Flow cytometry: FAM-conjugated pCD4^165-178 binding to RA-treated primary CD8^+ T cells; set-up: species or system human; conditions: FAM-Ttds-labelled peptide 1.25 μg/200,000 cells in 100 μl; MnCl2; 3 independent experiments
Excerpt: To further investigate the interaction between pCD4^165-178 and ⍺4β7 we attached a fluorescein dye to its amino terminus via a trioxatridecan-succinamic acid (Ttds) linker (Fig 5A). A scrambled pCD4^165-178 was employed as a control. […] FIB504 and vedolizumab inhibited binding by ~50%. This inhibition pattern resembles the one we obtained when inhibiting D1D2-Ig⍺tp with the same antagonists (Fig 3). We conclude that the CD4 D2 G β-strand binds directly to the headpiece region of ⍺4β7 in a cation dependent manner. Support for this conclusion, in the form of site directed mutagenesis within the D2 G β-strand is provided below.
Fig 5 Direct binding of pCD4^165-178 to ⍺4β7 on primary T cells. (A) Sequence of FAM -conjugated pCD4^165-178 and a scrambled derivative (FAM-scr pCD4^165-178). (B) Flow-cytometry derived histogram of pCD4^165-178 binding to RA -cultured CD8^+ T cells. pCD4^165-178 in the presence (green), or absence of Mn^++(black). Unstained cells are shown (grey). (C) Binding of pCD4^165-178 and its scrambled derivative to CD8^+ T cells in the presence of MnCl2 as in panel B, and in the presence of ⍺4 and ⍺4β7 antagonists, as indicated. Y-axis indicates % cells bound. Error bars represent standard error from 3 independent experiments.
Cells were stained with fluoresceine conjugated mAbs or recombinant proteins using standard procedures preceded by Fc receptor blocking with human IgG. Buffers used were 10 mM HEPES 150 mM NaCl (HBS Buffer) with 100 μM CaCl2. 1 mM MnCl2 was also included, unless otherwise specified. Buffer without divalent cations included 0.1 mM EDTA. Unlabeled mAb or protein inhibitors were preincubated with cells or proteins at a 5X molar excess for 15 min on ice. FAM labeled peptides were used at 1.25 μg/ 200,000 cells in a 100 μl volume. Data were acquired using a FACSCanto II (BD Biosciences) and analyzed with FlowJo software (BD Biosciences). Plotted MFI values represent absolute values.

[6] = biological target: T1, soluble α4β7 (recombinant integrin α4β7) (UniProt P13612 35-977; P26010 20-723); assay: SPR; conditions: both partners purified
T1 construct: also called integrin ⍺4β7; recombinant ⍺4β7

VEFKIDIVVLAFQK [CD4 P43, overlapping linear CD4 D2 peptide]
inhibition of ⍺4β7 binding to D1D2 (in words) (⍺4β7): reduced inhibition relative to pCD4^165-178

KIDIVVLAFQKASS [CD4 P44, overlapping linear CD4 D2 peptide]
inhibition of ⍺4β7 binding to D1D2 (in words) (⍺4β7): unable to inhibit

IVVLAFQKASSIVY [CD4 P45, overlapping linear CD4 D2 peptide]
inhibition of ⍺4β7 binding to D1D2 (in words) (⍺4β7): unable to inhibit

QIKILGNQGSFLTKG [CD4 P9, linear CD4 D1 peptide overlapping the C'C'' β-strands and connecting loop]
inhibition of ⍺4β7 binding to CD4 D1D2 coated surface (⍺4β7): ~ 17%

soluble α4β7 (recombinant integrin α4β7) (from UniProt P13612 35-977; P26010 20-723) (complex)
Ka [1]: 7.47e+08 M⁻¹
Kd [1]: 1.34 nM
koff [1]: 0.00112 s⁻¹
kon [1]: 840000 M⁻¹ s⁻¹
Ka [2]: 1.01e+09 M⁻¹
Kd [2]: 0.994 nM
koff [2]: 0.00136 s⁻¹
kon [2]: 1.37e+06 M⁻¹ s⁻¹
Ka [3]: 2.8e+08 M⁻¹
koff [3]: 0.000464 s⁻¹
kon [3]: 130000 M⁻¹ s⁻¹

CCOCc1cc(OC)c(-c2ccc(C[C@H](NC(=O)c3c(F)cccc3F)C(=O)O)cc2)c(OC)c1 [FG, firategrast]
inhibition of D1D2-Ig⍺tp and MAdCAM-Ig binding to ⍺4β7 transfected 293T cells (in words) [4]: inhibited
reduction of pCD4^165-178 binding to CD8^+ T cells [5]: ~ 80%

QFHWKNSNQIKILGN [CD4 P7, overlapping linear CD4 peptide, CD4 D1]
inhibition of ⍺4β7 binding to CD4 D1D2 coated surface (⍺4β7): ~ 17%

B1: MAdCAM-Ig (Fc fusion, human, UniProt Q13477 19-317, looked up)
chain: QSLQVKPLQVEPPEPVVAVALGASRQLTCRLACADRGASVQWRGLDTSLGAVQSDTGRSVLTVRNASLSAAGTRVCVGSCGGRTFQHTVQLLVYAFPDQLTVSPAALVPGDPEVACTAHKVTPVDPNALSFSLLVGGQELEGAQALGPEVQEEEEEPQGDEDVLFRVTERWRLPPLGTPVPPALYCQATMRLPGLELSHRQAIPVLHSPTSPEPPDTTSPESPDTTSPESPDTTSQEPPDTTSPEPPDKTSPEPAPQQGSTHTPRSPGSTRTRRPEISQAGPTQGEVIPTGSSKPAGDQ
notes: also called Hu-MAdCAM-Ig; recombinant MAdCAM-Ig
Ka [6]: 1.12e+08 M⁻¹
Kd [6]: 8.92 nM
koff [6]: 0.000863 s⁻¹
kon [6]: 96700 M⁻¹ s⁻¹

B2: VCAM-Ig (Fc fusion, UniProt P19320 25-698, looked up)
chain: FKIETTPESRYLAQIGDSVSLTCSTTGCESPFFSWRTQIDSPLNGKVTNEGTTSTLTMNPVSFGNEHSYLCTATCESRKLEKGIQVEIYSFPKDPEIHLSGPLEAGKPITVKCSVADVYPFDRLEIDLLKGDHLMKSQEFLEDADRKSLETKSLEVTFTPVIEDIGKVLVCRAKLHIDEMDSVPTVRQAVKELQVYISPKNTVISVNPSTKLQEGGSVTMTCSSEGLPAPEIFWSKKLDNGNLQHLSGNATLTLIAMRMEDSGIYVCEGVNLIGKNRKEVELIVQEKPFTVEISPGPRIAAQIGDSVMLTCSVMGCESPSFSWRTQIDSPLSGKVRSEGTNSTLTLSPVSFENEHSYLCTVTCGHKKLEKGIQVELYSFPRDPEIEMSGGLVNGSSVTVSCKVPSVYPLDRLEIELLKGETILENIEFLEDTDMKSLENKSLEMTFIPTIEDTGKALVCQAKLHIDDMEFEPKQRQSTQTLYVNVAPRDTTVLVSPSSILEEGSSVNMTCLSQGFPAPKILWSRQLPNGELQPLSENATLTLISTKMEDSGVYLCEGINQAGRSRKEVELIIQVTPKDIKLTAFPSESVKEGDTVIISCTCGNVPETWIILKKKAETGDTVLKSIDGAYTIRKAQLKDAGVYECESKNKVGSQLRSLTLDVQGRENNKDYFSPE
notes: also called recombinant VCAM-Ig
Ka [6]: 2.76e+07 M⁻¹
Kd [6]: 36.3 nM
koff [6]: 0.00141 s⁻¹
kon [6]: 38700 M⁻¹ s⁻¹
